The target in assay [1] is T1, DLL4 (DLL4 ECD/His tag, R&D Systems 1506-D4-050) (UniProt Q9NR61 27-529).
T1 construct: extracellular domain; not shown: His tag
The assay can be described thus: Direct bind ELISA on DLL4; DLL4 domain N-term., HC short, LC short. For orientation: An ELISA detects its analyte on a solid surface through an enzyme-linked reagent.

Assay [2] addresses T1, DLL4 (DLL4 ECD/His tag, R&D Systems …). The assay can be described thus: Direct bind ELISA on DLL4; DLL4 domain C-term., HC short, LC short.
Assay [3] shares this target. The assay is described as follows: Direct bind ELISA on DLL4; DLL4 domain N-term., HC long, LC long.
Assay [4] shares this target. The assay is described as follows: Direct bind ELISA on DLL4; reference antibody.

This passage reports EC50 results from patent US20100260668A1 (published 2010).

“And” between values parts separate entries of the source, which are not always exact repeats. Equal entries are not always repeated.

B1: DVD465 (DLL4/VEGF DVD-Ig) (bispecific antibody, human IgG1)
VH: EVQLVESGGGLVQPGGSLRLSCAASGFTFTDNWISWVRQAPGKGLEWVGYISPNSGFTYYADSVKGRFTISADTSKNTAYLQMNSLRAEDTAVYYCARDNFGGYFDYWGQGTLVTVSSASTKGPEVQLVESGGGLVQPGGSLRLSCAASGFTISDYWIHWVRQAPGKGLEWVAGITPAGGYTYYADSVKGRFTISADTSKNTAYLQMNSLRAEDTAVYYCARFVFFLPYAMDYWGQGTLVTVSS
VL: DIQMTQSPSSLSASVGDRVTITCRASQDVSTAVAWYQQKPGKAPKLLIYSASFLYSGVPSRFSGSGSGTDFTLTISSLQPEDFATTYYCQQSYTGTVTFGQGTKVEIKRTVAAPDIQMTQSPSSLSASVGDRVTITCRASQDVSTAVAWYQQKPGKAPKLLIYSASFLYSGVPSRFSGSGSGTDFTLTISSLQPEDFATYYCQQSYTTPPTFGQGTKVEIKR
notes: HC linker short, LC linker short; also called DVD465H; DVD465L
One may read the EC50 as the concentration at which the effect is half-maximal. As to B1, the midpoint of the response in assay [1], the EC50, lay at 0.57 nM.

B2: DVD444 (VEGF/DLL4 DVD-Ig) (bispecific antibody, human IgG1)
VH: EVQLVESGGGLVQPGGSLRLSCAASGFTISDYWIHWVRQAPGKGLEWVAGITPAGGYTYYADSVKGRFTISADTSKNTAYLQMNSLRAEDTAVYYCARFVFFLPYAMDYWGQGTLVTVSSASTKGPQVQLVQSGAEVKKPGASVKISCKASGYSFTAYYIHWVKQAPGQGLEWIGYISSYNGATNYNQKFKGRVTFTTDTSTSTAYMELRSLRSDDTAVYYCARDYDYDVGMDYWGQGTLVTVSS
VL: DIQMTQSPSSLSASVGDRVTITCRASQDVSTAVAWYQQKPGKAPKLLIYSASFLYSGVPSRFSGSGSGTDFTLTISSLQPEDFATYYCQQSYTTPPTFGQGTKVEIKRTVAAPDIVMTQSPDSLAVSLGERATISCRASESVDNYGISFMKWFQQKPGQPPKLLIYAASNQGSGVPDRFSGSGSGTDFTLTISSLQAEDVAVYYCQQSKEVPWTFGGGTKVEIKR
notes: HC linker short, LC linker short; also called DVD444H; DVD444L
Consider B2, for which, in assay [2], a half-maximal effect (EC50) was put at 30.5 nM.

B3: DVD513 (DLL4/VEGF DVD-Ig) (bispecific antibody, human IgG1)
VH: EVQLQQSGPELEKPGASVKISCKASGYSFTGYNMNWVKQSNGKSLEWIGNIDPYFGGTNYNQKFKGKATLTVDKSSSTAYMQLKSLTSEDSAVYYCARNYDYDGGCFDYWGQGTTLTVSSASTKGPEVQLVESGGGLVQPGGSLRLSCAASGFTISDYWIHWVRQAPGKGLEWVAGITPAGGYTYYADSVKGRFTISADTSKNTAYLQMNSLRAEDTAVYYCARFVFFLPYAMDYWGQGTLVTVSS
VL: QAVVTQESALTTSPGETVTLTCRSSTGAVTTSNYANWVQEKPDHLFTGLIGGTNNRAPGVPARFSGSLIGDKAALTITGAQTEDEAIYFCALWYSNHWVFGGGTKLTVLGQPKAAPDIQMTQSPSSLSASVGDRVTITCRASQDVSTAVAWYQQKPGKAPKLLIYSASFLYSGVPSRFSGSGSGTDFTLTISSLQPEDFATYYCQQSYTTPPTFGQGTKVEIKR
notes: HC linker short, LC linker short; also called DVD513H; DVD513L
With B3, it took 0.66 nM to reach a half-maximal effect in assay [1] (EC50).

B4: DVD443 (DLL4/VEGF DVD-Ig) (bispecific antibody, human IgG1)
VH: QVQLVQSGAEVKKPGASVKISCKASGYSFTAYYIHWVKQAPGQGLEWIGYISSYNGATNYNQKFKGRVTFTTDTSTSTAYMELRSLRSDDTAVYYCARDYDYDVGMDYWGQGTLVTVSSASTKGPEVQLVESGGGLVQPGGSLRLSCAASGFTISDYWIHWVRQAPGKGLEWVAGITPAGGYTYYADSVKGRFTISADTSKNTAYLQMNSLRAEDTAVYYCARFVFFLPYAMDYWGQGTLVTVSS
VL: DIVMTQSPDSLAVSLGERATISCRASESVDNYGISFMKWFQQKPGQPPKLLIYAASNQGSGVPDRFSGSGSGTDFTLTISSLQAEDVAVYYCQQSKEVPWTFGGGTKVEIKRTVAAPDIQMTQSPSSLSASVGDRVTITCRASQDVSTAVAWYQQKPGKAPKLLIYSASFLYSGVPSRFSGSGSGTDFTLTISSLQPEDFATYYCQQSYTTPPTFGQGTKVEIKR
notes: HC linker short, LC linker short; also called DVD443H; DVD443L
In assay [1], B4 had an EC50 of 0.2 nM.

B5: DVD471 (DLL4/VEGF DVD-Ig) (bispecific antibody, human IgG1)
VH: EVQLVESGGGLVQPGGSLRLSCAASGFTFTDNWISWVRQAPGKGLEWVGYISPNSGFTYYADSVKGRFTISADTSKNTAYLQMNSLRAEDTAVYYCARDNFGGYFDYWGQGTLVTVSSASTKGPSVFPLAPEVQLVESGGGLVQPGGSLRLSCAASGFTISDYWIHWVRQAPGKGLEWVAGITPAGGYTYYADSVKGRFTISADTSKNTAYLQMNSLRAEDTAVYYCARFVFFLPYAMDYWGQGTLVTVSS
VL: DIQMTQSPSSLSASVGDRVTITCRASQDVSTAVAWYQQKPGKAPKLLIYSASFLYSGVPSRFSGSGSGTDFTLTISSLQPEDFATTYYCQQSYTGTVTFGQGTKVEIKRTVAAPSVFIFPPDIQMTQSPSSLSASVGDRVTITCRASQDVSTAVAWYQQKPGKAPKLLIYSASFLYSGVPSRFSGSGSGTDFTLTISSLQPEDFATYYCQQSYTTPPTFGQGTKVEIKR
notes: HC linker long, LC linker long; also called DVD471H; DVD471L
Molecule B5 registered an EC50 in assay [3] of 0.89 nM.

B6: DVD490 (VEGF/DLL4 DVD-Ig) (bispecific antibody, human IgG1)
VH: EVQLVESGGGLVQPGGSLRLSCAASGFTISDYWIHWVRQAPGKGLEWVAGITPAGGYTYYADSVKGRFTISADTSKNTAYLQMNSLRAEDTAVYYCARFVFFLPYAMDYWGQGTLVTVSSASTKGPEVQLQQSGPELVKPGASVKMSCKASGYTFTSYVINWVKQKPGQGLEWIGLINPYNDGTKYNEKFKVKATLTSDKSSSTAYMELSSLTSEDSAVYYCASYYYGSRYYFDYWGQGTTLTVSS
VL: DIQMTQSPSSLSASVGDRVTITCRASQDVSTAVAWYQQKPGKAPKLLIYSASFLYSGVPSRFSGSGSGTDFTLTISSLQPEDFATYYCQQSYTTPPTFGQGTKVEIKRTVAAPDIQMTQSSSYLSVSLGGRVTITCKASDHINNWLAWYQQKPGNAPRLLISGATSLETGVPSRFSGSGSGKDYTLSITSLQTEDVATYYCQQYWSIPLTFGAGTKLELKR
notes: HC linker short, LC linker short; also called DVD490H; DVD490L
The molecule B6 showed an EC50 in assay [2] of 9.27 nM.

B7: DVD514 (VEGF/DLL4 DVD-Ig) (bispecific antibody, human IgG1)
VH: EVQLVESGGGLVQPGGSLRLSCAASGFTISDYWIHWVRQAPGKGLEWVAGITPAGGYTYYADSVKGRFTISADTSKNTAYLQMNSLRAEDTAVYYCARFVFFLPYAMDYWGQGTLVTVSSASTKGPEVQLQQSGPELEKPGASVKISCKASGYSFTGYNMNWVKQSNGKSLEWIGNIDPYFGGTNYNQKFKGKATLTVDKSSSTAYMQLKSLTSEDSAVYYCARNYDYDGGCFDYWGQGTTLTVSS
VL: DIQMTQSPSSLSASVGDRVTITCRASQDVSTAVAWYQQKPGKAPKLLIYSASFLYSGVPSRFSGSGSGTDFTLTISSLQPEDFATYYCQQSYTTPPTFGQGTKVEIKRTVAAPQAVVTQESALTTSPGETVTLTCRSSTGAVTTSNYANWVQEKPDHLFTGLIGGTNNRAPGVPARFSGSLIGDKAALTITGAQTEDEAIYFCALWYSNHWVFGGGTKLTVLG
notes: HC linker short, LC linker short; also called DVD514H; DVD514L
Regarding B7, in assay [2], the EC50 is 21.1 nM.

B8: AB072 (anti-DLL4 (seq. 3) parent antibody) (antibody, human IgG1, V domains shown)
VH: EVQLQQSGPELVKPGASVKMSCKASGYTFTSYVINWVKQKPGQGLEWIGLINPYNDGTKYNEKFKVKATLTSDKSSSTAYMELSSLTSEDSAVYYCASYYYGSRYYFDYWGQGTTLTVSS
VL: DIQMTQSSSYLSVSLGGRVTITCKASDHINNWLAWYQQKPGNAPRLLISGATSLETGVPSRFSGSGSGKDYTLSITSLQTEDVATYYCQQYWSIPLTFGAGTKLELKR
notes: also called AB072VH; AB072VL
With B8, the EC50 in assay [4] was 63.4 nM and 63.2 nM.

B9: AB069 (anti-DLL4 (seq. 2) parent antibody) (antibody, human IgG1, V domains shown)
VH: QVQLVQSGAEVKKPGASVKISCKASGYSFTAYYIHWVKQAPGQGLEWIGYISSYNGATNYNQKFKGRVTFTTDTSTSTAYMELRSLRSDDTAVYYCARDYDYDVGMDYWGQGTLVTVSS
VL: DIVMTQSPDSLAVSLGERATISCRASESVDNYGISFMKWFQQKPGQPPKLLIYAASNQGSGVPDRFSGSGSGTDFTLTISSLQAEDVAVYYCQQSKEVPWTFGGGTKVEIKR
notes: also called AB069VH; AB069VL
With B9, the EC50 in assay [4] is 0.23 nM and 0.24 nM.

B10: DVD489 (DLL4/VEGF DVD-Ig) (bispecific antibody, human IgG1)
VH: EVQLQQSGPELVKPGASVKMSCKASGYTFTSYVINWVKQKPGQGLEWIGLINPYNDGTKYNEKFKVKATLTSDKSSSTAYMELSSLTSEDSAVYYCASYYYGSRYYFDYWGQGTTLTVSSASTKGPEVQLVESGGGLVQPGGSLRLSCAASGFTISDYWIHWVRQAPGKGLEWVAGITPAGGYTYYADSVKGRFTISADTSKNTAYLQMNSLRAEDTAVYYCARFVFFLPYAMDYWGQGTLVTVSS
VL: DIQMTQSSSYLSVSLGGRVTITCKASDHINNWLAWYQQKPGNAPRLLISGATSLETGVPSRFSGSGSGKDYTLSITSLQTEDVATYYCQQYWSIPLTFGAGTKLELKRTVAAPDIQMTQSPSSLSASVGDRVTITCRASQDVSTAVAWYQQKPGKAPKLLIYSASFLYSGVPSRFSGSGSGTDFTLTISSLQPEDFATYYCQQSYTTPPTFGQGTKVEIKR
notes: HC linker short, LC linker short; also called DVD489H; DVD489L
Molecule B10 displayed an EC50 in assay [1] of 0.62 nM.

B11: DVD466 (VEGF/DLL4 DVD-Ig) (bispecific antibody, human IgG1)
VH: EVQLVESGGGLVQPGGSLRLSCAASGFTISDYWIHWVRQAPGKGLEWVAGITPAGGYTYYADSVKGRFTISADTSKNTAYLQMNSLRAEDTAVYYCARFVFFLPYAMDYWGQGTLVTVSSASTKGPEVQLVESGGGLVQPGGSLRLSCAASGFTFTDNWISWVRQAPGKGLEWVGYISPNSGFTYYADSVKGRFTISADTSKNTAYLQMNSLRAEDTAVYYCARDNFGGYFDYWGQGTLVTVSS
VL: DIQMTQSPSSLSASVGDRVTITCRASQDVSTAVAWYQQKPGKAPKLLIYSASFLYSGVPSRFSGSGSGTDFTLTISSLQPEDFATYYCQQSYTTPPTFGQGTKVEIKRTVAAPDIQMTQSPSSLSASVGDRVTITCRASQDVSTAVAWYQQKPGKAPKLLIYSASFLYSGVPSRFSGSGSGTDFTLTISSLQPEDFATTYYCQQSYTGTVTFGQGTKVEIKR
notes: HC linker short, LC linker short; also called DVD466H; DVD466L
For the molecule B11, in assay [2], the EC50 turned out to be 19.8 nM.

B12: AB073 (anti-DLL4 (seq. 4) parent antibody) (antibody, human IgG1, V domains shown)
VH: EVQLQQSGPELEKPGASVKISCKASGYSFTGYNMNWVKQSNGKSLEWIGNIDPYFGGTNYNQKFKGKATLTVDKSSSTAYMQLKSLTSEDSAVYYCARNYDYDGGCFDYWGQGTTLTVSS
VL: QAVVTQESALTTSPGETVTLTCRSSTGAVTTSNYANWVQEKPDHLFTGLIGGTNNRAPGVPARFSGSLIGDKAALTITGAQTEDEAIYFCALWYSNHWVFGGGTKLTVLG
notes: also called AB073VH; AB073VL
B12: the EC50 in assay [4] was 0.22 nM and 0.21 nM.

B13: AB015 (anti-DLL-4 (seq. 1) parent antibody) (antibody, human IgG1, V domains shown)
VH: EVQLVESGGGLVQPGGSLRLSCAASGFTFTDNWISWVRQAPGKGLEWVGYISPNSGFTYYADSVKGRFTISADTSKNTAYLQMNSLRAEDTAVYYCARDNFGGYFDYWGQGTLVTVSS
VL: DIQMTQSPSSLSASVGDRVTITCRASQDVSTAVAWYQQKPGKAPKLLIYSASFLYSGVPSRFSGSGSGTDFTLTISSLQPEDFATTYYCQQSYTGTVTFGQGTKVEIKR
notes: also called AB015VH; AB015VL
Consider B13, for which the EC50 in assay [4] was 0.6 nM and 0.58 nM.
